# The nanobody polyreactivity screen of Harvey et al. (2022)
# Assay: yeast display, Sf9 membrane polyspecificity reagent, FACS + sequencing; frameworks hold sequencing errors
# Outline: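 Sorting gates, low and high (top ~1%), were placed on anti-HA fluorescence to track expression and on streptavidin fluorescence to track reagent binding. A clone's polyreactivity label is taken from the gate it came out of. The reagent was 10% biotinylated, detergent-solubilized Sf9 membrane, applied for 1 hour at 4 °C to galactose-induced yeast display cells.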
row,Sequence,polyreactivity (PSR sort gate)
1,QVQLVESAGGLVQAGGSLRLSCAASGFIFFGNAMGWYRQAPGKERALVAVITWSGGSTYADSVKGRFTISRDNAKNPVYLQMNSLKPEDTAVYYSAADQQTWWQYSLINEYDYWGQGTQVTVTS,low polyreactivity
2,QVQLVESAGGLVQAGGSLRLSCAASGFIFPRYAMGWYRPAPGKERELVAAISSSGGSTYYADSVKGRFTISRDNAKNTVYLQMNSLKPEDTAVYYCAARYQSDYWRYYYWGQGTQVTVSS,high polyreactivity
3,QVQLVESAGGLVQAGGSLRLSCAASGGIFSRYSMGWYRQAPGKERELVAAITRSGGSTYYADSVKGRFTISRDNAKNTVYLQLNSLKPEDTAVYYCSARRRGGSKYGYWGQGTQVTVSS,high polyreactivity
4,QVQLVESAGGLVQAGGSLRLSCAASGICAVYARGWYRQAPGKERELVAAITLSGGSTSYADSVKGRFTISRDNAKNTVYLQMNSLNPAATEVYYCAVLIRYPYYYWGQGTQVTVSS,low polyreactivity
5,QVQLVESAGGLVQAGGSLRLSCAASGIIFSYYVMGWYRQAPGKERELVAAITTSGSRTYYADSVKGRFTISRDNAKITVYLQMNSLKPEVTSVYYCAAADAGLSVSSYRTYYYWGQGTQVTVSS,high polyreactivity
6,QVQLVESAGGLVQAGGSLRLSCAASGLIFARNSMGWYRQAPGKERELVAAISKRGGSTFYADSVKGRFTISRDNAKNTVYLQMNSLKPVDTAVYYWNARSSETWHGDYWGQGTQVTVSS,high polyreactivity
7,QVQLVESAGGLVQAGGSLRLSCAASGLTFYLYVMGWSRQATGKERELVAAISRRGGTTYYADSVKGRFTISRDNAKNTVYLQMNSLKPEDTAVYYCNKADAVGRDYDYWGQGTQVTVSS,high polyreactivity
8,QVQLVESAGGLVQAGGSLRLSCAASGLTFYRYAMGWYRQAPGKERELVAAISSADRTYYADSVKGRFTISRDNAKNTVYLQMNSLKPEDTAVYYCNARGIGRSTKWSSRDYWGQGTQVTVSS,high polyreactivity
9,QVQLVESAGGLVQAGGSLRLSCAASGRIFRANAMGWYRQAPGKERELVATIRNSGGITYYADSVKGRFTISRDHAKNTVYLQMNSLIPEDTAVYYCAKLGRYGYDYWGQGTQVTVSS,high polyreactivity
10,QVQLVESAGGLVQAGGSLRLSCAASGRIFYRYAMAWYRQAPGKERELVAAITQSGGSTFYADSVKGRFTISRDNAKNTVYLQMNSLKPEDTAVYYCNAYIPSLRGDYWGQGTQVTVSS,high polyreactivity
11,QVQLVESAGGLVQAGGSLRLSCAASGSIFLSNAMGWYRQAPGTERALVADIDWTGGDTYYADSVKGRFTISRDNAKNTVYLQMNSLKPEDTAFYYCAADYGYRNLLTEYGYWGQGTQVTVSS,low polyreactivity
12,QVQLVESAGGLVQAGGSLRLSCAASGSIFPTNTMGWYRQAPGKERELVATIRKSSGRTYYADSVKGRFTISRDNAKNTVYLQMNSLKPEDTAVYYCNARRYSGALRYDYWGQGTQVTVSS,high polyreactivity
13,QVQLVESAGGLVQAGGSLRLSCAASGSIFSPYAMGWYRQAPGKERELVAAITWNGGRTYYADSVKGRFTISRDNAKNTVYLHMNSLKPEDTAVYYCTAASQSRYYYWGQGTQVTVSS,high polyreactivity
14,QVQLVESAGGLVQAGGSLRLSCAASGSTFAYNVMGWYRQAPGKERELVASISSSSGSTYYADSVKGRFTISRDNAKNTVYLQMNSLKPEDTAVYYCATYPAYTEYDYWGQGTQVTVSS,high polyreactivity
15,QVQLVESAGGLVQAGGSLRLSCAASGSTFPWNAMGWDRQAPGKERELVAAISKSGGRTYYADSVKGRFTISRDNAKNTVYLQMNSLKPVDTAVYYCAKRYALSVYYRLYDYWGQGTQVTVSS,high polyreactivity
16,QVQLVESAGGLVQAGGSLRLSCAASGSTFTLYAMGWYRQAPGKERELVAAISWSGDSTYYADSVKGRFTISRDNAKNTVYLQMNSLKPEDTAVYYCAAENVYGYDYWGQGTQVTESS,high polyreactivity
17,QVQLVESAGGLVQAGGSLRLSCAASGSTFVGYAMGWYRQAPGKERELVAAISGSGTSTYYADSVKGRFTISRDNAKNTVYLQMNSLKPEDTAVYYCNADPIFVYSSYNYWGQGTQVTVSS,low polyreactivity
